Test results published in US5661126.

Target: recombinant human Mullerian Inhibiting Substance (human) (UniProt P03971)
Test: absorption of DG-MIS with IgG (1:3) and Protein A Sepharose, MIS in supernatant by ELISA; MIS alone 9.0 nM

## normal rabbit IgG (Dako Corporation, Denmark Lot 108) (polyclonal serum or antibody)
  MIS level left after absorption: 8.8 nM
